Laboratory results: doi:10.64898/2025.12.31.697154
Like-named read-outs stand apart in the source and are kept apart here.

Experiments:
Assay in all cases: FRET
[1] = target: OmSMAX1-D1M domain (Orobanche minor OF MAX2 1, D1M domain) (Orobanche minor)
[2] = target: OmSMAX1-D1M domain (Orobanche minor OF MAX2 1, D1M domain) (Orobanche minor); remark: listed apart in the source
[3] = target: OmSMAX1-D1M domain (Orobanche minor OF MAX2 1, D1M domain) (Orobanche minor); remark: listed apart in the source
[4] = target: OmSMAX1-D1M domain (Orobanche minor OF MAX2 1, D1M domain) (Orobanche minor); remark: listed apart in the source

| Substance | EC50 [1] [µM] | EC50 [2] [µM] | EC50 [3] [µM] | EC50 [4] [µM] |
| --- | --- | --- | --- | --- |
| OmKAI2d3 (Orobanche minor divergent 2 receptor d3) | 231 | 0.18 |  |  |
| OmKAI2d9 (Orobanche minor divergent 2 receptor d9) | 202 |  |  |  |
| OmKAI2d4 (Orobanche minor divergent 2 receptor d4) | 0.15 |  | 231 |  |
| OmKAI2d10 (Orobanche minor divergent 2 receptor d10) | 133 |  |  | 209 |
